In doi:10.1101/2022.09.25.509440 (bioRxiv, 2022):

Biological target: T1, human LRP6-ECD-Fc (human, UniProt O75581 20-1370)
T1 sequence (looked up): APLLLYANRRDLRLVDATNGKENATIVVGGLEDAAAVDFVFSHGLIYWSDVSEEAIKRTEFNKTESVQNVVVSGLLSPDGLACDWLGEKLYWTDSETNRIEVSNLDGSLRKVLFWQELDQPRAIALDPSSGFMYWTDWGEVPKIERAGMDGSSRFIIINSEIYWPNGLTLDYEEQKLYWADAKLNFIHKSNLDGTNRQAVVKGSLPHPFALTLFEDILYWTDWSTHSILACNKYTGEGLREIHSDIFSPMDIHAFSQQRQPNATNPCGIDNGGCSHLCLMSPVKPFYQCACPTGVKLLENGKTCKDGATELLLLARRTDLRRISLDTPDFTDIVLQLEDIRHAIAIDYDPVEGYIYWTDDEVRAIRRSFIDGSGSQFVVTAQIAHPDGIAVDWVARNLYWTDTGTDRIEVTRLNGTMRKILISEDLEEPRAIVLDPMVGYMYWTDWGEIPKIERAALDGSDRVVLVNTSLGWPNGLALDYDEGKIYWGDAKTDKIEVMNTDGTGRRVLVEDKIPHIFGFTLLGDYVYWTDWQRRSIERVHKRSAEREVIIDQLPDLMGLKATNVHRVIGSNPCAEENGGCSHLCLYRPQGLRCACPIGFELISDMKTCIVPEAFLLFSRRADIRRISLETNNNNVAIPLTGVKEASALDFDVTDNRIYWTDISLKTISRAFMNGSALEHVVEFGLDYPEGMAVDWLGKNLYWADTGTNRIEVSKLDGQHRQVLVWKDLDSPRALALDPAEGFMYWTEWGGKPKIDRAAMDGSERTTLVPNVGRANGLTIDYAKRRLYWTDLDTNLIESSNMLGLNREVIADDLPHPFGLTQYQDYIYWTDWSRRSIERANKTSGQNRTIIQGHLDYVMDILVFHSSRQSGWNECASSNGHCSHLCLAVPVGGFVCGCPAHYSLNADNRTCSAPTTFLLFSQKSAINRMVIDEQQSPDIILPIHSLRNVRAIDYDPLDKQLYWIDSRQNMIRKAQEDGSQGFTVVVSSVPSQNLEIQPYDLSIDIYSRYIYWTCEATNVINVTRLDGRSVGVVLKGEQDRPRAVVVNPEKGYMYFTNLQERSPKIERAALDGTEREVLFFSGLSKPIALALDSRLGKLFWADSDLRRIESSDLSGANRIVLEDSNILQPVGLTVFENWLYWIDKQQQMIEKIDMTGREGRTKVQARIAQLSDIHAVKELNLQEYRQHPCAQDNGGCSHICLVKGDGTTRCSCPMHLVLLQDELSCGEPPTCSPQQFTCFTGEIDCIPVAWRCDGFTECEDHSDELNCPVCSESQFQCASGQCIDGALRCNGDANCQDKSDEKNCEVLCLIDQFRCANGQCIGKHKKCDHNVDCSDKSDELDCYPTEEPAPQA
Assay: BLI

binding result: binds
B1: recombinant human Wnt3a (ligand, UniProt P56704 19-352, looked up)
chain: SYPIWWSLAVGPQYSSLGSQPILCASIPGLVPKQLRFCRNYVEIMPSVAEGIKIGIQECQHQFRGRRWNCTTVHDSLAIFGPVLDKATRESAFVHAIASAGVAFAVTRSCAEGTAAICGCSSRHQGSPGKGWKWGGCSEDIEFGGMVSREFADARENRPDARSAMNRHNNEAGRQAIASHMHLKCKCHGLSGSCEVKTCWWSQPDFRAIGDFLKDKYDSASEMVVEKHRESRGWVETLRPRYTYFKVPTERDLVYYEASPNFCEPNPETGSFGTRDRTCNVSSHGIDGCDLLCCGRGHNARAERRREKCRCVFHWCCYVSCQECTRVYDVHTCK
